Results taken from patent US20150344535A1, “NEUROTROPHIN-TYROSINE KINASE RECEPTOR SIGNALING” (THE UNIVERSITY OF QUEENSLAND, priority 2012, published 2015).

Legend:
[1] = tested on: primary E13 motor neurons; assay: Primary motor neuron survival and growth factor withdrawal; format: cell-based, mouse
Procedure: Briefly, pregnant mothers were sacrificed by cervical dislocation and the uterus removed by Caesarean section and placed in Neurobasal medium. Lumbar spinal cords were dissected from E13 embryos on ice. Batches of 2 or 3 spinal cords were incubated in 1 mL 0.05% trypsin-ETDA for 10 minutes at 37° C. in 15 mL tubes. To prevent further trypsinisation, 0.14 mg/mL trypsin inhibitor solution was added and the tissue centrifuged at 100×g for 7 minutes, without acceleration or deceleration. The supernatant was removed and the spinal cord tissue was resuspended in 1 mL of Neurobasal Medium (NB). In order to obtain a single cell suspension, each batch of 2-3 spinal cords was agitated manually for 2 minutes. The suspension was allowed to settle and the supernatant collected after being filtered through a 100 μm sieve. The remaining tissue was further triturated ˜8 times through a P200 pipette and filtered through a 100 μm sieve. The combined supernatants were then separated by centrifugation on a 5 ml cushion of 9% (vol/vol) OptiPrep® gradient in NB containing 2% B27 supplement for 45 min at 850×g, without acceleration or deceleration. To prevent toxicity following Optiprep® separation, the layer containing MNs was harvested into 10 mL of NB containing 10% HS, and the cell suspension was centrifuged at 900×g for 7 minutes at 24° C., without acceleration or deceleration. The supernatant was removed and the cell pellet was resuspended in 1 mL of NB medium.
The number of viable motor neurons was counted on a haemocytometer using 0.08% trypan blue and neurons plated in 4-well culture dishes at a density of 3,000 cells per well in 100 μL NB containing 10% HS. […] Primary motor neurons were maintained at 37° C. in a humidified atmosphere with 5% CO2 and culture medium was replaced at day 1 and 3. Phase contrast images of motor neurons were taken using an Olympus (6IX81) microscope after motor neurons were grown in vitro for up to 7 days.
To assess the effects of c29 peptide on motor neuronal survival in limiting growth factor concentrations, isolated spinal motor neurons were plated and treated with 0.01, 0.1 or 1.0 ng/ml of BDNF in the presence of 1 μm PTD4-linked c29 or scrambled peptide, and cultured for 5 days with the addition of fresh BDNF and peptide treatments on day 2 and 4. For growth factor-withdrawal assays, following initial plating in 1 ng/ml of BDNF, CNTF or GDNF, cultures were washed four times with serum-free Neurobasal (NB) medium, after which the medium was replaced with medium containing 1-0.01 ng/ml of BDNF, CNTF or GDNF and 1 μM PTD4-linked c29 or scrambled peptides, as indicated. For assays investigating the effect of c29 on NGF-mediated motor neuron death, cultures were grown in 1 ng/ml BDNF, CNTF or GDNF for 1 day, before being treated with 100 ng/ml 2.5S NGF in and 1 μM PTD4-linked c29 or scrambled peptide, as indicated. Motor neurons were counted on day 1, and to assess the effects of various treatments days 3 and 5 (4 separate 10×10 grid fields of each well per experiment).

PC12 cells = assay: PC12 cell neurite outgrowth in response to EGF; format: cell-based; conditions: vs no peptide or scrambled peptide
Procedure: To assess the effect of p75^NTR constructs (FIG. 2) or c29 peptide on TrkA-mediated neuritogenesis, transfected PC12 cells were grown in the presence of 100 ng/ml NGF for 3 days, with fresh medium and NGF treatments added on day 2. Cells were then imaged live on an Olympus (IX81) microscope fitted with a CO2 atmospheric chamber, using analySIS software. Four random images of 80-100 cells were taken for each treatment condition and images were determined by measuring polygon neurite length of all cells in each image. Data analysis was performed using Graphpad PRISM.
To determine whether the effect of the c29 peptide on enhancement of neurite outgrowth was NGF and TrkA specific, we repeated the experiment using EGF to stimulate differentiation.

TrkB = target: T1, TrkB (Mus musculus, UniProt P15209); assay: Biotinylated peptide pull down of TrkB from NSC-34 cells; format: binding; conditions: NSC-34 cell lysate, FIG. 4D
T1 construct: endogenous in cells; host or cells: NSC-34
T1 sequence (P15209 32-476 isoform P15209-2 limits assumed): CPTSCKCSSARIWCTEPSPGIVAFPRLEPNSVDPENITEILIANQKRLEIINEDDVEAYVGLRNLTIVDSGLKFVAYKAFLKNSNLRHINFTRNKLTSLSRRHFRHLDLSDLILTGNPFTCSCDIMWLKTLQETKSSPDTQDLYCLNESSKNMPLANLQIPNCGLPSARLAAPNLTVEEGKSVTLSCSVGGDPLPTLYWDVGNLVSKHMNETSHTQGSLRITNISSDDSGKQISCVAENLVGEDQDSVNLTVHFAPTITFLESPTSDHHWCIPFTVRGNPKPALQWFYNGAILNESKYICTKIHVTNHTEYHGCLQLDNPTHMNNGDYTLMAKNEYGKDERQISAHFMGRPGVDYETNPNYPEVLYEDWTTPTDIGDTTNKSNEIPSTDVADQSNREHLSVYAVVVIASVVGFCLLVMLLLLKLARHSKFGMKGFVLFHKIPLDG
Procedure: For peptide pull down assays, the biotinylated c29 or LC1 control peptides were incubated with protein A-sepharose beads or Dynabeads MyOne Streptavidin T1 (Invitrogen) overnight at 4° C. Cell lysates were then added to the peptide-protein A-sepharose complex or Dynabeads MyOne Streptavidin T1 and incubated for 3 hours at 4° C. Peptide-receptor complexes were washed extensively with RIPA lysis buffer and eluted by boiling in Laemmli sample buffer. For p75^NTR construct immunoprecipitations, HEK293 cells were treated with NGF at 50 ng/ml for 10 minutes 48 hours after transfection with 1 μg DNA per well. Cells were immediately harvested in ice-cold phosphate buffered saline (PBS) and washed twice, then lysed in 1 ml of lysis buffer. Cell lysates were pre-cleared in 75 μl (1:2) protein-G sepharose: PBS by rotation end-over-end for 2 hours at 4′C. Lysates were then incubated with 3-5 μg antibody, either mouse-anti-YFP/GFP (Roche) or rabbit-anti-human p75^NTR intracellular domain antibody (Promega), and rotated end-over-end for 2 hours at 4° C.
Immunoprecipitation was performed by the addition of 75 μl (1:2) protein-G sepharose: PBS and incubation end-over-end for 16 hours at 4° C. The immunoprecipitate was washed 4 times with 1 ml of PBS then eluted in 60 μl 2×LDS sample buffer. […]

TrkAK538A = target: T2, TrkAK538A (Homo sapiens, UniProt P04629, K544A); assay: NGF-FITC binding by flow cytometry, TrkAK538A-transfected HEK293 cells
T2 construct: expressed in transfected cells; host or cells: HEK293
T2 sequence (P04629 33-796 K544A): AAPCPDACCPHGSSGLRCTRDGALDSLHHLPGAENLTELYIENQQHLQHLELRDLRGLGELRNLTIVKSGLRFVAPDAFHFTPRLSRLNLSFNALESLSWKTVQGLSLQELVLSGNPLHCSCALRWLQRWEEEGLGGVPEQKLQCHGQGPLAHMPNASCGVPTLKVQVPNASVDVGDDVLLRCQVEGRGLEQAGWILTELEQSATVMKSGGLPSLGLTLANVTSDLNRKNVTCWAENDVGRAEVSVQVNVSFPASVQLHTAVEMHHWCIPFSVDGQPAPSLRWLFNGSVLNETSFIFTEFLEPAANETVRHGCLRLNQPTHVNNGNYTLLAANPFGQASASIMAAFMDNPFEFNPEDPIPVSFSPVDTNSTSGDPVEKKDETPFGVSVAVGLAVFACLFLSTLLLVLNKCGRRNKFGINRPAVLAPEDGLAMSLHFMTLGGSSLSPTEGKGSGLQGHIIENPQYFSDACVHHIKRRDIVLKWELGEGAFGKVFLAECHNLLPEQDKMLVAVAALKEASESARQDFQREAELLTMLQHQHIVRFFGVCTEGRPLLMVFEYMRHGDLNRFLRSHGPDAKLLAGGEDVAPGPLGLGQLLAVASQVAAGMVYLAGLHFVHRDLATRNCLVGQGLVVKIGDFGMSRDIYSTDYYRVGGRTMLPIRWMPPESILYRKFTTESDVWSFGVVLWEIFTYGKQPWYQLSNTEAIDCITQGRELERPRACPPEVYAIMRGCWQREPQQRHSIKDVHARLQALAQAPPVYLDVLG
T2 sequence (P01139 122-239 partner limits assumed): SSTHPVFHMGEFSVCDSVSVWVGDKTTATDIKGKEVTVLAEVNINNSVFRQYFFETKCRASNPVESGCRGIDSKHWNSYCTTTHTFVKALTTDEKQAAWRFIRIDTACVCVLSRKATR
Procedure: The NGF was conjugated to FITC by standard methods and detailed flow cytometry acquisition and analysis. For NGF-FITC conjugation 400 μg βNGF in 200 μl pH 8.5 NaHCO3 buffer was mixed with 5-10 μl of 10 mg/ml FITC in 100 μl DMSO for 10 hours at 4° C. on an orbital shaker set to 100 rpm. The excess FITC was removed by dialysis against 3 changes of 5 L of 10 mM Tris, 150 mM NaCl, 0.2% acetic acid, pH 8.2 for 24 hours at 4° C. Conjugate F/P characterization was determined by measuring absorbance at 280 nm and 495 nm according to manufacturer's instructions. Biological activity of the NGF-FITC conjugate was tested by performing PC12 cell neurite outgrowth assays unlabelled NGF, and comparing the levels of neuritogenesis. NGF-FITC conjugates were used within 4 weeks of synthesis.
For the flow cytometry NGF binding assays, fluorescence cell parameters of at least 20,000 events for PC12 cells and 100,000 events for HEK293 cells were acquired by flow cytometry list mode and measurements were performed on a single cell basis (with compensation for double event counting). Dead cells and debris were gated out of the analysis on the basis of forward scatter fluorescence, and mean, median and maximal fluorescence values of the gated cell populations were analysed using FACS Diva Software (Becton-Dickinson Biosciences) and FACS Express Software (Becton-Dickinson Biosciences).
Background fluorescence of HEK293 cells was non-transfected cells (±c29 or scrambled peptide treatment) treated with 26 nM NGF-FITC. For PC12 cells, the control population was cells that had not been treated with NGF-FITC. Analysis of real-time NGF-FITC receptor binding experiments was performed on 550,000-600,000 cells at 4° C. in serum free NB medium and binding kinetics were calculated from raw data files compressed to 50,000 binding events using FlowJo and MatLab Software. Data was plotted with the use of GraphPad Prism.
Only NGF-FITC preparations that promoted equivalent neurite outgrowth of PC12 cells to that of unlabelled NGF were used in binding experiments. To investigate NGF binding, PC12 or transfected HEK293 cells were serum starved for 4 hours, harvested, washed with Dulbecco's Modified Eagle Medium (DMEM), and counted. When used, c29 or scrambled peptide were added to cultures for the third hour of the serum starvation procedure. 1×10^7 cells/ml suspended in 500 μl of serum-free DMEM were incubated with 26 nM NGF-FITC on ice for 60 minutes before analysis. For binding competition assays, following 1 hour in NGF-FITC, cells were washed with ice-cold PBS containing 0.1% normal bovine serum and incubated on ice with unlabeled NGF at concentrations ranging from 100 pM to 10 μM for 30 minutes, then washed twice in PBS before being analysed on a BD Flow Cytometer FACS Scan (Becton-Dickinson).
To determine association rates, cells were harvested as above following serum starvation and peptide treatment, and were resuspended in 3 ml of serum-free Neurobasal (NB) medium containing […] (Invitrogen) and […] nonessential amino acids, prior to analysis on the flow cytometer. Cells were analysed for 30 seconds prior to the addition of 26 nM NGF-FITC, and then for 30 minutes in real time with an analysis rate of 200-300 events/sec.

[2] = 26 nM NGF-FITC 60 minutes, + c29 c.f. TrkAK538A alone

Sequence: KRWNSCKQNKQGANSRPVNQTPPPEGEKL (c29- Fragment of p75ICD) [29 amino acid peptide of the p75NTR juxtamembrane Chopper domain; delivered to cells linked to PTD4 or disulfide-linked carrier]
- NGF-induced cell death of motor neurons ([1]; 1 ng/ml BDNF plus NGF): significantly protected from NGF-induced cell death
- neuronal survival after BDNF withdrawal ([1]; 10-fold lower BDNF, vs scrambled peptide): significantly increased neuronal survival
- survival of motor neurons following CNTF or GDNF withdrawal ([1]; 10-fold lower CNTF or GDNF): no effect on the survival of motor neurons
- motor neuron survival ([1]; BDNF 0.01-1.0 ng/ml, after 5 days, vs control cultures): increased survival
- neuritogenesis in EGF-treated cultures (PC12 cells): no effect on neuritogenesis
- pull down of endogenously expressed TrkB (TrkB): able to pull down endogenously expressed TrkB
- % of cell population with FITC above background (TrkAK538A; [2]): 112.2 ± 5.3%
- Maximal fluorescence per cell of the population (TrkAK538A; [2]): 128.0 ± 11.7%
- Mean fluorescence per FITC-positive cell (TrkAK538A; [2]): 125.0 ± 12.1%
- Median population fluorescence (TrkAK538A; [2]): 140.5 ± 21.3%
- half time of NGF-FITC binding (TrkAK538A; 26 nM NGF-FITC, cells pre-treated with c29, average of 3 experiments): 3.6 min
- faster association rate than untreated cells (TrkAK538A; Hill-Slope association curve fit): ~3 fold
- total number of fluorescent cells, median, mean and maximal fluorescence (TrkAK538A; compared to control TrkAK538A-transfected cells): significantly increased
- mean fluorescence of the population following receptor saturation, higher than untreated (TrkAK538A; ~20 minutes after NGF addition): at least 20%
